Test results published in patent US20210230266A1 (SINGAPORE HEALTH SERVICES PTE, published 2021).

T1: Human IL-11 (human, UniProt P20809 22-199)
T1 construct: Recombinant human IL-11 (GenScript Cat. No. Z03108-1) or IL-11 secreted by human cells; the mature form is said to have 178 residues; also called recombinant human IL-11; endogenously produced IL-11
T1 sequence: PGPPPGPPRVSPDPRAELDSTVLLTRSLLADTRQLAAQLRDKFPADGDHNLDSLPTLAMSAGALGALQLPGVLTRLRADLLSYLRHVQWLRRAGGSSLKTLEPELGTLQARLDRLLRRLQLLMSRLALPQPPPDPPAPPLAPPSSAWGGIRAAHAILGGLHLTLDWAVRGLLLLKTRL

T2: Mouse IL-11 (mouse, UniProt P47873 22-199, limits assumed)
T2 construct: also called murine IL-11; recombinant murine IL-11
T2 sequence (looked up): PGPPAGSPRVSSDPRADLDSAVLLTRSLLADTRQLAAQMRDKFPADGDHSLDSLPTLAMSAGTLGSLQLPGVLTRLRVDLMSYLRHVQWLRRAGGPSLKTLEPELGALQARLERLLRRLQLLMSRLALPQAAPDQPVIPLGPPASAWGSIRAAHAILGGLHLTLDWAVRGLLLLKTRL


Key:
Human IL-11 [1] = target: T1, Human IL-11; assay: ELISA
Description: (§1) The soluble scFv were produced by recombinant expression in E. coli, and analysed for their ability to bind to human IL-11 and murine IL-11 by ELISA. Briefly, the respective antigen was coated to wells of an ELISA plate, the cell culture supernatant containing the respective scFv was added at a 1:2 dilution, and binding was detected.

Mouse IL-11 = target: T2, Mouse IL-11; assay: ELISA
Description: as §1

Human IL-11 [2] = target: T1, Human IL-11; assay: cell-based or functional assay
Human IL-11 [3] = target: T1, Human IL-11; assay: ELISA on coated recombinant human IL-11 (100 ng/well), scFv-Fc
Description: The light chain shuffled anti-IL-11 antibodies were analysed to determine the EC50 for binding to human IL-11 by ELISA according to standard methods. Briefly, wells of microtiter plates were coated with recombinant human IL-11 (100 ng/well), scFv-Fc comprising the VH and VL domains of the clones were added in a dilution series and antibody binding was detected using a polyclonal antibody detection system.

Binder | hIL11 - average signal (Human IL-11 [1]) | mIL11 - average signal (Mouse IL-11) | MMP2 production, Experiment 1 (human atrial fibroblasts + TGFB1) (Human IL-11 [2]) | MMP2 production, Experiment 2 (human atrial fibroblasts + TGFB1) (Human IL-11 [2]) | EC50 (Human IL-11 [3])
YU112-H02 (antibody) QVQLVESGGGVVQPGRSLRLSCAASGFTFSSYGMHWVRQAPGKGLEWVAVISYDGSNKYYADSVKGRFTISRDNSKNTLYLQMNSLRAEDTAVYYCAKLSGPNGVDYWGQGTLVTVSSGSASAPKLEEGEFSEARVQPVLTQPRSVSGSPGQSVTISCTGTSSDVGGYNYVSWYQQHPGKAPKVMIYDVSKRPSGVPDRFSGSKSGNTASLTISGLQAEDEADYYCCSYAGSYTWVFGGGTKLTVL | 0.606 | 0.785 | 65.3 ng/mL | 58 ng/mL | 0.02 µg/mL
YU100-B06 (antibody) QVQLVESGGGVVQPGRSLRLSCAASGFTFSSYGMHWVRQAPGKGLEWVAVISYDGSNKYYADSVKSRFTISRDNSKNTLYLQMNSLRAEDTAVYYCAKIGATDPLDYWGQGTLVTVSSGSASAPKLEEGEFSEARVQSALTQPASVSGSPGQSITISCTGTSSDVGGYNYVSWYQQHPGKAPKLMIYDVSKRPSGVPDRFSGSKSGNTASLTISGLQAEDEADYYCNSYAGSYTWVFGGGTKLTVL | 0.209 | 0.404 | 47.6 ng/mL | 49.6 ng/mL | 0.033 µg/mL
YU100-B07 (antibody) QVQLVESGGGVVQPGRSLRLSCAASGFTFSSYGMHWVRQAPGKGLEWVAVISYDGSNKYYADSVKGRFTISRDNSKNTLYLQMNSLRAEDTAVYYCAKIGATDPLDYWGQGTLVTVSSGSASAPKLEEGEFSEARVQSALTQPRSVSGSPGQSVTMSCTGTSRDVGGYNYVSWYQHHPGKAPKLMIYDVSKRPSGVPDRFSGSKSGNTASLTISELQAEDEADYYCCSYAGSYTWVFGGGTKLTVL | 0.167 | 0.354 | 55.9 ng/mL | 47.4 ng/mL | 0.023 µg/mL
YU100-B01 (antibody) QVQLVQSGGGVVQPGRSLRLSCAASGFTFSSYGMHWVRQAPGKGLEWVAVISYDGSNKYYADSVKGRFTISRDNSKNTLYLQMNSLRAEDTAVYYCAKIGATDPLDYWGQGTLVTVSSGSASAPKLEEGEFSEARVQSALTQPRSVSGSPGQSVTISCTGTNTDVGAYNYVSWYQQYPGKAPKLIIYDVSKRPSGVPDRFSGSKSGNTASLTISGLQAEDEADYYCCSYAGSYSWVFGGGTKLTVL | 0.187 | 0.175 | 52.5 ng/mL | 40 ng/mL | 0.023 µg/mL
YU100-B03 (antibody) QVQLVQSGGGVVQPGRSLRLSCAASGFTFSSYGMHWVRQAPGKGLEWVAVISYDGSNKYYADSVKGRFTISRDNSKNTLYLQMNSLRAEDTAVYYCAKIGATDPLDYWGQGTLVTVSSGSASAPKLEEGEFSEARVQSVLTQPRSVSGSPGRSVTISCTGTSSDVGGYNYVSWYQQHPGKAPKLTLYDVVKRPSGVPDRYSGSKSGNTASLTISGLQAEDEADYYCCSYAGGYTWVFGGGTKVTVV | 0.227 | 0.321 | 47.3 ng/mL | 46.8 ng/mL | 0.025 µg/mL
YU112-H01 (antibody) QVQLVESGGGVVQPGRSLRLSCAASGFTFGSYGMHWVRQAPGKGLEWVAVISYDGSNKYYADSVKGRFTISRDNSKNTLYLQMNSLRAEDTAVYYCAKGSYYFDYWGQGTLVTVSSGSASAPKLEEGEFSEARVETTLTQSPGTLSLSPGERATLSCRASQSVSSSYLAWYQQKPGQAPRLLIYGASSRATGIPDRFSGSGSGTDFTLTISSLQPDDFATYYCQQSYSTPTWTFGQGTKVEIK | 1.23 | 1.18 | 51.9 ng/mL | 47.7 ng/mL | 0.02 µg/mL

Further lines, results first:

hIL11 - average signal (Human IL-11 [1]) | mIL11 - average signal (Mouse IL-11) | MMP2 production, Experiment 1 (human atrial fibroblasts + TGFB1) (Human IL-11 [2]) | MMP2 production, Experiment 2 (human atrial fibroblasts + TGFB1) (Human IL-11 [2]) | EC50 (Human IL-11 [3]) | Binder
0.333 | 0.372 | 51.6 ng/mL | 45.7 ng/mL | 0.02 µg/mL | YU100-A11 (antibody) EVQLQQSGGGVVQPGRSLRLSCAASGFTFSSYGMHWVRQAPGKGLEWVAVISYDGSNKYYADSVKGRFTISRDNSKNTLYLQMNSLRAEDTAVYYCAKIGATDPLDYWGQGTLVTVSSGSASAPKLEEGEFSEARVQSALTQPRSVSGSPGQSVTISCTGTSSDVGGYNYVSWYQQHPGKAPKLMIYDVSKRPSGVPDRFSGSKSGNTASLTISGLQAEDEADYYCCSYAGSYTWVFGGGTKLTVL
0.32 | 0.388 | 59.5 ng/mL | 50.4 ng/mL | 0.023 µg/mL | YU100-A12 (antibody) QVQLVESGGGVVQPGRSLRLSCAASGFTFSSYGMHWVRQAPGKGLEWVAVISYDGSNKYYADSVKGRFTISRDNSKNTLYLQMNSLRAEDTAVYYCAKIGATDPLDYWGQGTLVTVSSGSASAPKLEEGEFSEARVLPVLTQPRSVSGSPGQSVTISCTGTSSDVGGYNYVSWYQQHPGKAPKLMIYDVSKRPSGVPDRFSGSKSGDTASLTISGLQAEDEADYYCSSYAGSYTWVFGGGTKLTVL
0.209 | 0.423 | 55.3 ng/mL | 40.6 ng/mL | 0.021 µg/mL | YU100-B08 (antibody) EVQLVQSGGGVVQPGRSLRLSCAASGFTFSSYGMHWVRQAPGKGLEWVAVISYDGSNKYYADSVKGRFTISRDNSKNTLYLQMNSLRAEDTAVYYCAKIGATDPLDYWGQGTLVTVSSGSASAPKLEEGEFSEARVQSALTQPASVSGSPGQSITISCTGTSSDVGGYNYVSWYQQHPGKVPRLLIYDVSNRPSGVSTRFSGSKSGNTASLTISGLQGEDEAEYYCSSFTSSTTWVFGGGTKLTVL
0.443 | 0.54 | 52.1 ng/mL | 50.1 ng/mL | 0.023 µg/mL | YU100-A10 (antibody) EVQLVESGGGVVQPGRSLRLSCAASGFTFSSYGMHWVRQAPGKGLEWVAVISYDGSNKYYADSVKGRFTISRDNSKNTLYLQMNSLRAEDTAVYYCAKIGATDPLDYWGQGTLVTVSSGSASAPKLEEGEFSEARVLPVLTQPASVSGSPGQSITISCTGTSSDVGAYNYVSWYQQHPGKAPELMIYDVSNRPSGVSNRFSGSKSGNTASLTISGLQPEDEADYYCSSFTTSIAWVFGGGTKLTVL
0.268 | 0.346 | 49.6 ng/mL | 42.2 ng/mL | 0.022 µg/mL | YU100-D02 (antibody) QVRLVQSGGGVVQPGRSLRLSCAASGFTFSSYGMHWVRQAPGKGLEWVAVISYDGSNKYYADSVKGRFTISRDNSKNTLYLQMNSLRAEDTAVYYCAKIGATDPLDYWGQGTLVTVSSGSASAPKLEEGEFSEARVQSALTQPRSVSGSPGQSVTISCTGTSGDVGTYNYVSWYQQHPGKAPKLMIFDVSKRPSGVPDRFSGSKSGNTASLTISGLQAEDEADYYCNSYAGSYTWVFGGGTKLTVLGQPKAAPSVTLFPPSS
